Laboratory results as given in patent US20140234872.

What was measured:
[1] = test system: His-GIV-CT (aa 1660-1870), wild-type, phosphorylated in vitro by recombinant EGFR kinase
[2] = test system: His-GIV-CT Y1764F, phosphorylated in vitro by recombinant EGFR kinase
[3] = test system: His-GIV-CT Y1798F, phosphorylated in vitro by recombinant EGFR kinase
Chain of His-GIV-CT Y1798F, phosphorylated in vitro by recombinant EGFR kinase (chain, as listed by the source Y1798F): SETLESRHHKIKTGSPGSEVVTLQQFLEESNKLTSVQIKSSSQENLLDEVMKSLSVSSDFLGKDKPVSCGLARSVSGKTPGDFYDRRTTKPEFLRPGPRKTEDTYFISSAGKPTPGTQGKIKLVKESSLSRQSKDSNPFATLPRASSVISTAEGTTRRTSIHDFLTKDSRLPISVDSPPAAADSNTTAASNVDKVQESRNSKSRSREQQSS

Chain of His-GIV-CT (aa 1660-1870), wild-type, phosphorylated in vitro by recombinant EGFR kinase (chain, as listed by the source): as the sequence (chain, as listed by the source Y1798F) above, with F139Y counted along it
Chain of His-GIV-CT Y1764F, phosphorylated in vitro by recombinant EGFR kinase (chain, as listed by the source Y1764F): as the sequence (chain, as listed by the source Y1798F) above, with Y105F, F139Y counted along it

Row | Substance | in vitro phosphatase assay: residual tyrosine phosphorylation of His-GIV-CT [1] | in vitro phosphatase assay: residual tyrosine phosphorylation of His-GIV-CT mutants [2] | in vitro phosphatase assay: residual tyrosine phosphorylation of His-GIV-CT mutants [3]
1 | GST-SHP-1 (full length, wild-type, human) | SHP-1 WT, but not SHP-1 CS dephosphorylated tyrosine-phosphorylated His-GIV-CT in a dose-dependent manner | – | –
2 | His-SHP-1 (human, recombinant) | SHP-1 efficiently dephosphorylated GIV in a dose-dependent manner | SHP-1 efficiently dephosphorylated both mutants | SHP-1 efficiently dephosphorylated both mutants
3 | GST-SHP-1 C453S (catalytically inactive) | SHP-1 WT, but not SHP-1 CS dephosphorylated tyrosine-phosphorylated His-GIV-CT in a dose-dependent manner | – | –
